According to patent publication US6436666:
Values joined by “and” are separate entries in the source; they are usually repeats but may differ in a detail not shown here. Equal entries are not always repeated.

Assays:
[1] = target: Substrate: protein A-G-G-G-G-7aa-NS4B/5A cleavage site-8aa-FLAG-G-FLAG-G-FLAG (Example 6) (hepatitis C virus); test: time-resolved fluorometry: 20 nM substrate captured on IgG coated Immulon-4 plate, detected with Eu^3+-anti-FLAG MoAb
[2] = target: pro A-NS5, polypeptide substrate of HCV protease (Example 1 construct: Protein A - NS5A/5B protease target site - three FLAG tags) (hepatitis C virus); test: ELISA: pro A-NS5 on IgG plate, no protease, anti-FLAG then goat anti-mouse-HRP; Exp. 1
[3] = target: pro A-NS5, polypeptide substrate of HCV protease (Example 1 construct: Protein A - NS5A/5B protease target site - three FLAG tags) (hepatitis C virus); test: ELISA: proA-NS5 2 µg/ml captured on IgG plate, no protease, anti-FLAG then goat anti-mouse-HRP, OPD
[4] = target: pro A-NS5, polypeptide substrate of HCV protease (Example 1 construct: Protein A - NS5A/5B protease target site - three FLAG tags) (hepatitis C virus); test: ELISA: pro A-NS5 on IgG plate, no protease, anti-FLAG then goat anti-mouse-HRP; Exp. 2
[5] = target: pro A-NS5, polypeptide substrate of HCV protease (Example 1 construct: Protein A - NS5A/5B protease target site - three FLAG tags) (hepatitis C virus); test: ELISA: pro A-NS5 10 µg/ml captured on IgG plate, no protease, anti-FLAG then goat anti-mouse-HRP, OPD
[6] = target: pro A-NS5 target polypeptide of Examples 3 and 4 (protein A anchor region, linker, protease target site of HCV NS5A/5B, linker, FLAG epitope tag region) (hepatitis C virus); test: ELISA: pro A-NS5 on human IgG plate, no protease, anti-FLAG then goat anti-mouse conjugate
[7] = target: Peptide 4A, a co-factor of the NS3 HCV protease (Example 2)

## Eu^3+-anti-FLAG MoAb (Sigma via Kodak, cat#IB13026, lot# 710413) (antibody)
[1]
  Eu^3+ counts: 1.31e+06 Eu^3+ counts and 1.26e+06 Eu^3+ counts

## monoclonal anti-FLAG mouse antibody (available from Kodak)
[2]
  OD: 1.23 OD
[3]
  OD: 0.77 OD
[4]
  OD: 0.93 OD
[5]
  OD: 1.21 OD

## Mouse monoclonal anti-FLAG M2 (IBI, IBI13010/6j0612) (antibody)
[6]
  OD w/o DMSO: 2.6 OD

B1: protease 1: Ni-13 (F21) 20 µM, preparation made at Chiron (protein)
chain: APITAYAQQTRGLLGCIITSLTGRDKNQVEGEVQIVSTAAQTFLATCINGVCWTVYHGAGTRTIASPKGPVIQMYTNVDQDLVGWPAPQGSRSLTPCTCGSSDLYLVTRHADVIPVRRRGDSRGSLLSPRPISYLKGSSGGPLLCPAGHAVGIFRAAVCTRGVAKAVDFIPVENLETTMRS
[7]
  cleavage of the NS4B/5A substrate by the protease with and without the co-factor peptide: These data demonstrates the operability of the screening assay using HCV NS4B/5A protease cleavage site with co-factor peptide 4A
